Data from patent US20220324909A1 (COHBAR, published 2022).
Non-standard residues stand in square brackets, D forms with d. No end group written: not given here.

T1: Apelin Receptor (APJ) stably overexpressed in CHO-K1 AGTRL1 Gi cells (human, UniProt P35414 1-380)
T1 sequence (looked up): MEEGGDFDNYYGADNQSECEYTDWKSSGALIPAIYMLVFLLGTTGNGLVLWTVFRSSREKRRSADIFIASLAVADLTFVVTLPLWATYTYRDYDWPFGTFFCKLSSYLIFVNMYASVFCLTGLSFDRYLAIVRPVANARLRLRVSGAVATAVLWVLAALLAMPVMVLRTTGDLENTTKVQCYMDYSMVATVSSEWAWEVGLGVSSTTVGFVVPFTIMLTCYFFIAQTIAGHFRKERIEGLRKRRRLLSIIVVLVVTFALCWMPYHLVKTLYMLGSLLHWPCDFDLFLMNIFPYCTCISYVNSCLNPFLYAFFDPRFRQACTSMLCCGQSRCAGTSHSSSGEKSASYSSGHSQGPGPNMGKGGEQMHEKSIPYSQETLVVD


target: ProLink tagged human APJ (Apelin Receptor) in CHO-K1 AGTRL1 β-Arrestin cells (human, UniProt P35414 1-380); experiment: cell-based or functional assay

Row | β-Arrestin recruitment, Percent of Apelin-13 Control Activity (10 µM peptide) | Binder
1 | 5 % of Apelin-13 control | Ac-RRMMGMVFQSLCG[dA] [SEQ ID NO 61]
2 | 1 % of Apelin-13 control | RMMGMVFQSL [SEQ ID NO 53]
3 | 0 % of Apelin-13 control | RRMMGMVFQS [SEQ ID NO 59]
4 | 0 % of Apelin-13 control | RRMMGMVF [SEQ ID NO 57]
5 | 10 % of Apelin-13 control | RRMMGMVFQSLSG[dA] [SEQ ID NO 17]
6 | 0 % of Apelin-13 control | RMMGMVFQ [SEQ ID NO 51]
7 | 9 % of Apelin-13 control | Ac-RRMMGMVFQSLCG[dA]-NH2 [SEQ ID NO 63]
8 | 1 % of Apelin-13 control | RRMMGM [SEQ ID NO 55]
9 | 0 % of Apelin-13 control | RRMMGMVFQCLSG[dA] [SEQ ID NO 16]
10 | 0 % of Apelin-13 control | RRMMGMVFQ [SEQ ID NO 58]
11 | 2 % of Apelin-13 control | RRMMGMVFQSLCG[dA]-NH2 [SEQ ID NO 62]
12 | 0 % of Apelin-13 control | RRMMGMVFQSL [SEQ ID NO 60]
13 | 0 % of Apelin-13 control | RMMGMVFQS [SEQ ID NO 52]
14 | 1 % of Apelin-13 control | RMMGMVFQSLCG[dA] [SEQ ID NO 54]
15 | 0 % of Apelin-13 control | RRMMGMV [SEQ ID NO 56]
16 | 0 % of Apelin-13 control | RMMGMVF [SEQ ID NO 50]
17 | 1 % of Apelin-13 control | RRMVFQCLCG[dA] (cysteine pairing not given here) [SEQ ID NO 19]
18 | 1 % of Apelin-13 control | RRXXGXVFQCLCGA ((Nle) norleucine at positions 3, 4 and 6; (dA) D-alanine at position 14) [SEQ ID NO 18]

target: T1, Apelin Receptor (APJ) stably …; experiment: cell-based or functional assay

Row | cAMP levels, Percent of Pyr-Apelin-13 Control Activity (10 µM peptide, 10 µM forskolin) | Binder
19 | 1 % of Pyr-Apelin-13 control | Ac-RRMMGMVFQSLCG[dA] [SEQ ID NO 61]
20 | 6 % of Pyr-Apelin-13 control | RMMGMVFQSL [SEQ ID NO 53]
21 | -2 % of Pyr-Apelin-13 control | RRMMGMVFQS [SEQ ID NO 59]
22 | -1 % of Pyr-Apelin-13 control | RRMMGMVF [SEQ ID NO 57]
23 | 26 % of Pyr-Apelin-13 control | RRMMGMVFQSLSG[dA] [SEQ ID NO 17]
24 | 24 % of Pyr-Apelin-13 control | RMMGMVFQ [SEQ ID NO 51]
25 | 21 % of Pyr-Apelin-13 control | Ac-RRMMGMVFQSLCG[dA]-NH2 [SEQ ID NO 63]
26 | -7 % of Pyr-Apelin-13 control | RRMMGM [SEQ ID NO 55]
27 | 5 % of Pyr-Apelin-13 control | RRMMGMVFQ [SEQ ID NO 58]
28 | 27 % of Pyr-Apelin-13 control | RRMMGMVFQSLCG[dA]-NH2 [SEQ ID NO 62]
29 | 16 % of Pyr-Apelin-13 control | RRMMGMVFQSL [SEQ ID NO 60]
30 | 15 % of Pyr-Apelin-13 control | RMMGMVFQS [SEQ ID NO 52]
31 | 20 % of Pyr-Apelin-13 control | RMMGMVFQSLCG[dA] [SEQ ID NO 54]
32 | -2 % of Pyr-Apelin-13 control | RRMMGMV [SEQ ID NO 56]
33 | 8 % of Pyr-Apelin-13 control | RMMGMVF [SEQ ID NO 50]
34 | 27 % of Pyr-Apelin-13 control | RRMVFQCLCG[dA] (cysteine pairing not given here) [SEQ ID NO 19]
35 | 30 % of Pyr-Apelin-13 control | RRXXGXVFQCLCGA ((Nle) norleucine at positions 3, 4 and 6; (dA) D-alanine at position 14) [SEQ ID NO 18]
